From US20060216279A1

Molecular target: rmGDF8 (R&D) (mouse (from the label rmGDF8 only)) (UniProt O08689)
Experiment: Biacore, trap captured on amine-coupled Protein A (CM5), rmGDF8 0.312-20 nM as analyte

Chain of UniProt O08689 (O08689 268-376 limits assumed): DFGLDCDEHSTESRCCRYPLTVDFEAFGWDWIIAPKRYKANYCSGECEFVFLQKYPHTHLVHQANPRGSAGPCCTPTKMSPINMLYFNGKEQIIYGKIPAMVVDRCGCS

- Kd: 0.0133 nM
- koff: 6.2e-05 s⁻¹
- kon: 4.66e+06 M⁻¹ s⁻¹
- t½: 3.1 h
Substance: hGDF8(1-38, 43-64)-hFc (Fc fusion)
